Measurements from US9878046B2, “Adverse side-effects associated with administration of an anti-hyaluronan agent and methods for ameliorating or preventing the side-effects” (Halozyme, Inc., priority 2010, dated 2018).
“Also recorded” adds a separate entry of the source.

What was measured:
[1] = Tolerability / musculoskeletal response to PEGPH20 in beagle dogs; type: in vivo, beagle dog
[2] = Dexamethasone premedication and PEGPH20-induced musculoskeletal observations
Description: In one study, four naïve male beagle dogs were orally dosed with 4 mg/dose dexamethasone twice a day on the day of PEGPH20 administration. The first dexamethasone dose was given orally (PO) immediately before PEGPH20 intravenous (IV) administration. The second dexamethasone dose was given orally ˜8 hours later. On day 1, one dog was dosed with 3040 U/kg (0.08 mg/kg) PEGPH20 after Dexamethasone. Twenty four hours later (day 2), a second dog was dosed with 5700 U/kg (0.15 mg/kg) PEGPH20 after Dexamethasone. Twenty four hours later (day 3), a third dog was dosed with 11400 U/kg (0.3 mg/kg) PEGPH20 after Dexamethasone. Twenty four hours later (day 4), a fourth dog was dosed with 38000 U/kg (1.0 mg/kg) PEGPH20 after Dexamethasone. Blood was collected pre-PEGPH20 administration, and 0.5 hr, 4 h and 24 h post-PEGPH20 administration.
PEGPH20 was administered IV with a 5 mL bolus injection via percutaneous needle puncture of the cephalic vein on study Days 1, 2 and/or 5. Dexamethasone was administered orally immediately before the PEGPH20 injection and approximately 8 hours post injection. All animals were re-dosed 3 days after the first injection except those in the PEGPH20 alone treatment group, which were not re-dosed.
Animals treated with only one dose of PEGPH20 were evaluated at 96 hours, 120 hours, 6, 7, 8, and 9 days post-dose.

hyaluronan = assay: Hyaluronan staining of BxPC3 tumor sections; type: in vivo, human (xenograft in athymic female nude mice); details: Day 18, dexamethasone low or high dose, PEGPH20 4.5 mg/kg, or both
Description: Tumor tissues from the two satellite mice from all 6 treatment groups in Example 9B.1 above, were harvested by tissue biopsy on Day 18 and stained for the presence of hyaluronan. Tumor biopsies were fixed in 10% NBF for 48 hours, embedded in paraffin, and sectioned. Samples were probed for hyaluronan using a biotinylated HA-binding protein (HABP), then probed with FITC-labeled streptavidin for detection. The cell nuclei were counterstained with DAPI (4′,6-diamidino-2-phenylindole) reagent. Micrographs were then captured using a Zeiss Microscope (Thornwood, N.Y.) coupled with the Spot imaging program (Diagnostic Instruments, Inc).
Hyaluronan expression in the sections was evaluated by the level of green fluorescent intensity in the sections.

[3] = test system: soluble plasma hyaluronan; assay: Soluble plasma hyaluronan ELISA in PC3 tumor-bearing mice; type: in vivo; details: PEGPH20 4.5 mg/kg alone or + dexamethasone (high or low dose)
Description: Plasma samples were additionally used to measure soluble plasma hyaluronan in the control group and each of the treatment groups (R&D Systems Catalog DY3614; ELISA assay). In the vehicle control group, the plasma hyaluronan levels ranged from 800,000 to 900,000 ng/mL.

[4] = test system: pericellular and stromal HA; assay: Histochemical detection of HA in patient tumor biopsies; type: in vivo, human; details: colon cancer patient, liver metastasis, 1.6 μg/kg twice weekly + dexamethasone, post vs archived pre biopsy
Description: An archived pre-dose biopsy (pre biopsy) obtained in 2007 (3.5 years prior to the PEGPH20 study) and a post-PEGPH20 Cycle 1 (3 days after the last dose) biospsy (Post biopsy) were obtained from a colon cancer patient with liver metastases. The patient post-treatment biopsy was obtained after one cycle of PEGPH20 treatment at 1.6 μg/kg on a twice weekly schedule with dexamethasone co-treatment.
Briefly, the tumor biopsies were fixed in normal buffered formalin (NBF) and 5 μm sections cut and stained using a biotin labeled hyaluronan binding protein (HABP-bio) (Seikagaku, Japan). After washing to remove the primary reagent, a labeled secondary reagent was used. Nuclei were counter-stained using a DAPI (4′,6-diamidino-2-phenylindole) reagent. Micrographs were captured via a Nikon Eclipse TE2000U inverted fluorescent microscope coupled to a Insight FireWire digital camera (Diagnostic Instruments, Michigan) or ZEISS overhead scope (Carl Zeiss, Inc.) that has the same imaging system.

[5] = test system: hyaluronan present in the circulation; assay: Plasma HA and catabolites (disaccharide assay) in patients; type: in vivo, human
Description: This Example describes a method for the determination of the HA-disaccharide content in plasma. The method employs the hydrolysis of HA with Chondroitinase ABC to release the HA-disaccharides, derivatize them with 2-amino acridone (AMAC) and analyze them on a reverse-phase HPLC coupled with fluorescence detection. Quantitation of the HA-disaccharides is accomplished by comparison with HA-disaccharide standards.
Next, the sample was hydrolyzed. The sample (e.g. plasma) was prepared by taking approximately 100 μg of protein in a polypropylene tube and adjusting the volume to 340 μl with water. A matrix blank also was prepared by taking dilution buffer (1.59 g HEPES, 5.07 g NaCl, 1800 mL water, pH 7.0) equal to the volume of the sample and adjusting the volume to 340 μl. Hydrolysis of the samples and matrix blank were effected by adding 60 μl of TFA to the sample tube and matrix blank tube and the contents were mix and incubated at 100° C. for 4 hours. The vials were allowed to cool to room temperature. The vials were evaporated to dryness using a speed vac. Then, 300 μl of water was added to each tube and vortexed to resuspend the samples. […]
The enzymatic activity of PEGPH20 was measured by monitoring concentrations of hyaluronan present in the circulation.

tumor regions = assay: Apparent diffusion coefficient MRI (ADC-MRI) of tumors; type: in vivo, human
Description: Scans were performed pre-treatment and post-treatment.
Apparent diffusion coefficient magnetic Resonance imaging (ADC-MRI) measures the volume of water that has moved across the cell membrane based upon a calculation derived from the pre- and post-treatment scans. ADC-MRI scans were completed for a total of 10 of the 14 patients in the study described in Example 6 and 4 of the 5 patients in the study described in Example 10. […] Increased ADC values are consistent with the mechanism of action of PEGPH20.

[6] = Clinical study (Phase 1-101), musculoskeletal adverse events of PEGPH20
Description: The median age of the patients was age 61 (range 56-86) with tumor types including histiocytoma, colorectal, pancreatic, bladder, carcinoid and ovarian. In all cases, the patients entered the program under pain medication related to their presenting condition but not for study drug-related pain.

[7] = all scanned patients of both studies

B1: PEGPH20 (protein)
chain: LNFRAPPVIPNVPFLWAWNAPSEFCLGKFDEPLDMSLFSFIGSPRINATGQGVTIFYVDRLGYYPYIDSITGVTVNGGIPQKISLQDHLDKAKKDITFYMPVDNLGMAVIDWEEWRPTWARNWKPKDVYKNRSIELVQQQNVQLSLTEATEKAKQEFEKAGKDFLVETIKLGKLLRPNHLWGYYLFPDCYNHHYKKPGYNGSCFNVEIKRNDDLSWLWNESTALYPSIYLNTQQSPVAATLYVRNRVREAIRVSKIPDAKSPLPVFAYTRIVFTDQVLKFLSQDELVYTFGETVALGASGIVIWGTLSIMRSMKSCLLLDNYMETILNPYIINVTLAAKMCSQVLCQEQGVCIRKNWNSSDYLHLNPDNFAIQLEKGGKFTVRGKPTLEDLEQFSEKFYCSCYSTLSCKEKADVKDTDAVDVCIADGVCIDAFLKPPMETEEPQIFY
In the case of B1, the “reaction immediately post-dose after a break in dosing” value ([1]; 3040 Units/kg IV on Day 17, 26 or 33) is reported as “systemic anaphylactoid-like reaction”, the “musculoskeletal effects after re-dose” value ([1]; 3040 Units/kg IV on Day 59, antibody-positive dogs) is reported as “No musculoskeletal effects were observed” and the “musculoskeletal responses, repeat daily dosing” value ([1]; Day 7 through Day 9, 3800 to 15200 Units/kg) is reported as “No musculoskeletal responses were observed”. The “musculoskeletal responses, repeat daily dosing” value ([1]; Day 12, 60800 Units/kg (1.6 mg/kg), dog 288 IV) was “reduced mobility 2 hours after the 60800 Units/kg (1.6 mg/kg) dose with complete recovery within 10 hours post-dose”, the “musculoskeletal responses, repeat daily dosing” value ([1]; Days 4 through 6, 1520 to 3040 Units/kg, IV or SC) was “reduced mobility (reduced ability to walk or stand), overall decreased activity, and muscle stiffness in the neck, back and extremities upon palpation; also recorded: the severity of the responses decreased from Day 4 to Day 6” and the “resolution of musculoskeletal responses” value ([1]; single dose 3040 U/kg on Day 1, three dogs) was no more than 4 days. For the same molecule, the “time of musculoskeletal response post-dose” value ([1]; single dose 3040 U/kg, IV or SC, three dogs) was no more than 23 h, the musculoskeletal observations ([1]; single dose 3040 Units/kg (0.08 mg/kg), IV or SC) was “reduced mobility (reduced ability to walk or stand) and tighness of muscles of the neck, back and extremities upon palpation; also recorded: reduced mobility (reduced ability to walk or stand), overall decreased activity, and muscle stiffness in the neck, back and extremities upon palpation” and the “musculoskeletal observations on the following day” value ([1]; single dose of either 0.08 mg/kg or 0.3 mg/kg) was “reduced walking ability, difficulty standing, decreased activity and tightness of the muscles of the neck, back and extremities”. For the same molecule, the “complete resolution of musculoskeletal observations post-dose” value ([2]; PEGPH20 0.3 mg/kg IV alone) was “approximately 72 hours”, the “onset of musculoskeletal observations post-dose” value ([2]; PEGPH20 0.3 mg/kg IV alone) was “approximately 10 hours” and the musculoskeletal observations ([2]; PEGPH20 11400 Units/kg (0.3 mg/kg) IV alone) was “moderate to severe musculoskeletal observations”. For the same molecule, the “hyaluronan staining of tumor sections” value (hyaluronan) was “almost completely absent”, the plasma hyaluronan [3] was “no detectable (below limit of quantitation) hyaluronan” and the “change in tumor HA by histochemical staining” value [4] was “decrease in pericellular and stromal HA levels”. The “HA catabolite levels over a week” value ([5]; 0.5 μg/kg to 1.5 μg/kg, 12 patients) was “increased in a dose-dependent manner”, the “plasma concentrations of hyaluronan” value ([5]; single 50 μg/kg dose) was “increased significantly” and the “Change in Tumor ADC-MRI from baseline” value (tumor regions; 0.5 μg/kg, 2x/wk, scan D3) was “no change”. The “Change in Tumor ADC-MRI from baseline” value (tumor regions; 0.5 μg/kg, 21 day cycle, individual patients, scan D3 or D4) was “decrease in lymph nodes; also recorded: increase”, the “Change in Tumor ADC-MRI from baseline” value (tumor regions; 0.75 μg/kg, 21 day cycle, individual patients, scan D3 (D30)) was “increase; also recorded: no change” and the “Change in Tumor ADC-MRI from baseline” value (tumor regions; 1.0 μg/kg, 21 day cycle, scan D5) was “increase”. The “Change in Tumor ADC-MRI from baseline” value (tumor regions; 1.5 μg/kg, 21 day cycle, scan D3) was “no change”, the “Change in Tumor ADC-MRI from baseline” value (tumor regions; 50 μg/kg, scan D4) was “no change” and the “patients with ADC values decreased” value (tumor regions; [7]) was 2 of 14. The “patients with ADC values unchanged” value (tumor regions; [7]) was 5 of 14, the “patients with increases in ADC-MRI” value (tumor regions; [7]) was 7 of 14 and the dose-limiting toxicity ([6]; 0.5 μg/kg IV every 21 days) was “No dose-limiting toxicities”. For the same molecule, the “musculoskeletal side effects, severity” value ([6]; 0.5 μg/kg IV every 21 days, three patients) was “intermittent Grade 1 or transient Grade 2”, the dose-limiting toxicity ([6]; 0.5 μg/kg IV twice weekly) was “met dose-limiting toxicity” and the “severity of muscle/joint pain” value ([6]; 0.5 μg/kg IV twice weekly, after 2 doses) was “Grade 3”. For the same molecule, the “musculoskeletal pain leading to discontinuation (summary)” value ([6]; 0.5 μg/kg in a 21 day cycle) was “Grade 3”, the dose-limiting toxicity ([6]; 0.75 μg/kg IV every 21 days, Grade 3 event after first cycle) was “not considered a dose-limiting toxicity” and the “musculoskeletal side effects, severity” value ([6]; 0.75 μg/kg IV every 21 days, cohort and individual patients) was “intermittent Grade 1 or transient Grade 2; also recorded: Grade 1; also recorded: Grade 3; also recorded: Grade 2”. The dose-limiting toxicity ([6]; 1.0 μg/kg IV every 21 days) was “no dose-limiting toxicities”, the “musculoskeletal symptoms, severity” value ([6]; 1.0 μg/kg IV every 21 days, one of three patients) was “Grade 1” and the dose-limiting toxicity ([6]; 1.5 μg/kg IV every 21 days, one patient) was “no dose-limiting toxicities”. The “musculoskeletal pain leading to discontinuation (summary)” value ([6]; 50.0 μg/kg dose twice weekly, individual patients) was “Grade 4; also recorded: Grade 3”, the duration of pain ([6]; single IV dose 0.05 mg/kg) was “more than 9 days” and the “onset of stiffness and muscle and joint pain after dosing” value ([6]; single IV dose 0.05 mg/kg) was 6 to 10 h. For the same molecule, the “severity of muscle/joint pain” value ([6]; single IV dose 0.05 mg/kg, individual patients) was “Grade 3”.
